Data published in publication PMC9163516.
Like-named read-outs stand apart in the source and are kept apart here.

Key:
TβRI ectodomain [1] = biological target: TβRI ectodomain (UniProt P36897); assay: ITC; TGF-β3(TβRII)2 complex titrated into TβRI; 25 mM Hepes, 50 mM NaCl, 0.05% NaN3, pH 7.5, 30 °C
[2] = biological target: biotinylated avi-tagged TβRII (UniProt P37173)
TβRI ectodomain [3] = biological target: TβRI ectodomain (UniProt P36897); assay: ITC; TGM construct in the syringe (58-150 µM), 7.5 µM TβRI in the cell; 25 mM Hepes, 50 mM NaCl, 0.05% NaN3, pH 7.5, 25 °C; 1:1 model (Nitpic, Sedphat)
TβRII ectodomain [4] = biological target: TβRII ectodomain (UniProt P37173); assay: ITC; TGM construct titrated into TβRII in the cell; 25 mM sodium phosphate, 50 mM NaCl, pH 6.0, 35 °C; 1:1 model
[5] = biological target: biotinylated avi-tagged TβRII (UniProt P37173); assay: SPR; BIAcore X100; biotinylated avi-tagged TβRI or TβRII captured on neutravidin-coated CM-5 chip (results say streptavidin) at 50-150 RU; TGM constructs injected as 2-fold dilution series in 25 mM Hepes, pH 7.4, 150 mM NaCl, 0.005% P20, 100 μl/min; 1:1 kinetic fit of a single injection series
[6] = biological target: biotinylated avi-tagged TβRII (UniProt P37173); assay: SPR; biotinylated avi-tagged TβRII captured at 50-150 RU on neutravidin-coated CM-5 chip; WT TGM-D3 or TGM-D3 variants injected in 25 mM Hepes, pH 7.4, 150 mM NaCl, 0.05% P20, 100 μl/min; 1:1 fit of duplicate or triplicate injection series
[7] = biological target: biotinylated avi-tagged TβRII (UniProt P37173); assay: as above; remark: listed apart in the source
TβRII ectodomain [8] = biological target: TβRII ectodomain (UniProt P37173); assay: ITC; TGM construct in the syringe (300-320 µM), 15 µM TβRII in the cell; 25 mM sodium phosphate, 50 mM NaCl, pH 6.0, 35 °C; 1:1 model (Nitpic, Sedphat)
[9] = biological target: biotinylated avi-tagged TGM-D3 (Heligmosomoides polygyrus); assay: SPR; biotinylated avi-tagged TGM-D3 captured at 50-150 RU on neutravidin-coated CM-5 chip; TβRII variants injected in 25 mM Hepes, pH 7.4, 150 mM NaCl, 0.05% P20, 100 μl/min; 1:1 fit of duplicate or triplicate injection series
TβRI ectodomain [10] = biological target: TβRI ectodomain (UniProt P36897); assay: ITC; TGM construct titrated into TβRI in the cell; 25 mM Hepes, 50 mM NaCl, 0.05% NaN3, pH 7.5, 25 °C; 1:1 model
[11] = biological target: biotinylated avi-tagged TβRI (UniProt P36897); assay: SPR; BIAcore X100; biotinylated avi-tagged TβRI or TβRII captured on neutravidin-coated CM-5 chip (results say streptavidin) at 50-150 RU; TGM constructs injected as 2-fold dilution series in 25 mM Hepes, pH 7.4, 150 mM NaCl, 0.005% P20, 100 μl/min; 1:1 kinetic fit of a single injection series
TβRII ectodomain [12] = biological target: TβRII ectodomain (UniProt P37173); assay: ITC; competition: 150 μM mmTGF-β27M injected into 15 μM TβRII with 0, 6.0 or 12.0 μM TGM-D3; 25 mM sodium phosphate, 50 mM NaCl, pH 6.0, 35 °C; global fit of the three datasets to a 1:1 model with competition

“TGF-β3(TβRII)2 binary complex (from UniProt P37173 23-166)” was tested, and the Kd (TβRI ectodomain [1]) was 61 nM and the dH (TβRI ectodomain [1]) was -4.2 kcal/mol.

In the case of “TGM D13 (TGM D1-D3), wild type (domain or fragment)”, the EC50 of signaling, MFB-F11 TGF-β reporter bioassay [2] is reported as 3.9 ng/mL.

With TGM D13 I238A (domain or fragment) the EC50 of signaling, MFB-F11 TGF-β reporter bioassay [2] was 9.7 ng/mL.

TGM D13 I256A (domain or fragment) gave an EC50 of signaling, MFB-F11 TGF-β reporter bioassay [2] of 4.5 ng/mL.

TGM D13 Y252A (domain or fragment) was tested, and the EC50 of signaling, MFB-F11 TGF-β reporter bioassay [2] was 7 ng/mL.

For TGM-D2 (domain or fragment), the Kd (TβRI ectodomain [3]) was 1500 nM and the stoichiometry N (TβRI ectodomain [3]) was 0.54.

With TGM-D3 (domain or fragment) the stoichiometry N (TβRII ectodomain [4]) was 1, the Kd [5] was 910 nM and the koff [5] was 0.6 s⁻¹. It also gave a kon [5] of 600000 M⁻¹ s⁻¹.

TGM-D3 F235A (domain or fragment) gave a fold increase of KD against WT [6] of 4 fold.

For TGM-D3 I238A (domain or fragment), the fold increase of KD against WT [6] was > 20 fold.

With TGM-D3 K254A (domain or fragment) the fold increase of KD against WT [6] was > 20 fold and the fold increase of KD against WT [7] was > 30 fold.

In the case of TGM-D3 R198A (domain or fragment), the fold increase of KD against WT [6] is reported as > 20 fold and the fold increase of KD against WT [7] is reported as > 30 fold.

In the case of TGM-D3 V236A (domain or fragment), the fold increase of KD against WT [6] is reported as 4 fold.

With TGM-D3 Y252A (domain or fragment) the fold increase of KD against WT [6] was > 20 fold.

TGM-D12 (domain or fragment) was tested, and the stoichiometry N (TβRI ectodomain [3]) was 1.2.

In the case of TGM-FL (natural protein), the Kd (TβRII ectodomain [8]) is reported as 550 nM, the stoichiometry N (TβRII ectodomain [8]) is reported as 0.84 and the Kd (TβRI ectodomain [3]) is reported as 52 nM. The stoichiometry N (TβRI ectodomain [3]) was 0.96.

“TβRII E142Q (from UniProt P37173 23-166) (receptor)” showed a fold increase of KD against WT [9] of 17 fold.

For “TβRII I73A (from UniProt P37173 23-166) (receptor)”, the fold increase of KD against WT [9] was 7 fold.

Work on “TβRII I76A (from UniProt P37173 23-166) (receptor)” yielded a fold increase of KD against WT [9] of 26 fold.

With “TβRII S75L (from UniProt P37173 23-166) (receptor)” the fold increase of KD against WT [9] was 200 fold.

In the case of “full-length TGM (TGF-β mimic) (natural protein)”, the stoichiometry N (TβRI ectodomain [10]) is reported as 1, the stoichiometry N (TβRII ectodomain [4]) is reported as 1 and the Kd [11] is reported as 13 nM. It also gave a koff [11] of 0.00078 s⁻¹, a kon [11] of 59000 M⁻¹ s⁻¹ and a Kd [5] of 610 nM. For the same substance, the koff [5] was 0.1 s⁻¹ and the kon [5] was 2e+07 M⁻¹ s⁻¹.

“mmTGF-β27M, engineered TGF-β monomer (from UniProt P61812) (ligand)” was tested, and the Kd (TβRII ectodomain [12]) was 35 nM.
